Series [1] deals with CCM1 Q103R1 (non-glycosylated, spin-labelled) (human) (UniProt P13688). Description: continuous-wave EPR.
Series [2] has as its target gCCM1 E5R1 (single GlcNAc modifications, spin-labelled) (human) (UniProt P13688). The series can be described thus: continuous-wave EPR.
Series [3] has as its target gCCM1 Q103R1 (single GlcNAc modifications, spin-labelled) (human) (UniProt P13688). The series can be described thus: continuous-wave EPR.
Series [4] deals with CCM1 E5R1 (non-glycosylated, spin-labelled) (human) (UniProt P13688). The series can be described thus: continuous-wave EPR.
For series [5], the target named is CCM1 D94R1 (non-glycosylated, spin-labelled) (human) (UniProt P13688). Description: continuous-wave EPR.
In series [6] the target is cgCCM1 Q103R1 (complex N-linked glycans, spin-labelled) (human) (UniProt P13688). Description: continuous-wave EPR.
Series [7] deals with cgCCM1 E5R1 (complex N-linked glycans, spin-labelled) (human) (UniProt P13688). The series can be described thus: continuous-wave EPR.
The series “SEC” concerns the molecule itself. Description: SEC. For orientation: Size exclusion chromatography separates by hydrodynamic size, large species first.

We go through eight molecules from publication PMC9081242 (Structure (London, England : 1993), 2022).

Take “CCM1 Q103R1 (non-glycosylated, spin-labelled) (from UniProt P13688 69-175) (domain or fragment)”: in series [1], the stoichiometry N was determined as 2.
Turning to “gCCM1 E5R1 (single GlcNAc modifications, spin-labelled) (from UniProt P13688 68-175) (domain or fragment)”, the stoichiometry N in series [2] is 2.
For “gCCM1 Q103R1 (single GlcNAc modifications, spin-labelled) (from UniProt P13688 68-175) (domain or fragment)”, the stoichiometry N in series [3] stood at 2.
“CCM1 E5R1 (non-glycosylated, spin-labelled) (from UniProt P13688 69-175) (domain or fragment)”: the stoichiometry N in series [4] was 2.
For the molecule “CCM1 D94R1 (non-glycosylated, spin-labelled) (from UniProt P13688 69-175) (domain or fragment)”, the stoichiometry N in series [5] was 2.
“cgCCM1 Q103R1 (complex N-linked glycans, spin-labelled) (from UniProt P13688 68-175) (domain or fragment)” gave a stoichiometry N in series [6] of 2.
In series [7], “cgCCM1 E5R1 (complex N-linked glycans, spin-labelled) (from UniProt P13688 68-175) (domain or fragment)” registered a stoichiometry N of 2.

B1: non-glycosylated CEACAM1 N-terminal Ig-like domain (CCM1) (domain or fragment, human, UniProt P13688 35-141, looked up)
chain: QLTTESMPFNVAEGKEVLLLVHNLPQQLFGYSWYKGERVDGNRQIVGYAIGTQQATPGPANSGRETIYPNASLLIQNVTQNDTGFYTLQVIKSDLVNEEATGQFHVY
For B1, the “stoichiometry N” value in “SEC” is 2.

For orientation: stoichiometry N means the number of molecules, sites or subunits per partner or assembly.
